Test results: patent publication US20060105385, “Xenobiotic related induction of gene expression” (The University of Sydney, published 2006)

Key:
Conditions in all cases: label: 32P
[1] = target: T1, hPXR-RXR heterodimer (human pregnane X receptor / retinoid X receptor) (UniProt O75469;P19793 O75469:1-434,P19793:1-462); experiment: EMSA; efficient gel shift
Protocol: (§1) The hPXR is an orphan nuclear receptor, belonging to the nuclear receptor gene superfamily. […] In order to evaluate the affinity of these putative response elements for HPXR-RXR heterodimers, electromobility shift assays (EMSA) were performed using with in-vitro transcribed/translated hPXR and RXR.

[2] = target: T1, hPXR-RXR heterodimer (human pregnane X …); experiment: EMSA; no shift apparent; mutation of the site lowers reporter to 52% of wild type
Protocol: as §1

[3] = target: T1, hPXR-RXR heterodimer (human pregnane X …); experiment: EMSA; no shift apparent; described as functionally important by mutagenesis
Protocol: as §1

T1 sequence (O75469 whole entry, chain 1 of 2): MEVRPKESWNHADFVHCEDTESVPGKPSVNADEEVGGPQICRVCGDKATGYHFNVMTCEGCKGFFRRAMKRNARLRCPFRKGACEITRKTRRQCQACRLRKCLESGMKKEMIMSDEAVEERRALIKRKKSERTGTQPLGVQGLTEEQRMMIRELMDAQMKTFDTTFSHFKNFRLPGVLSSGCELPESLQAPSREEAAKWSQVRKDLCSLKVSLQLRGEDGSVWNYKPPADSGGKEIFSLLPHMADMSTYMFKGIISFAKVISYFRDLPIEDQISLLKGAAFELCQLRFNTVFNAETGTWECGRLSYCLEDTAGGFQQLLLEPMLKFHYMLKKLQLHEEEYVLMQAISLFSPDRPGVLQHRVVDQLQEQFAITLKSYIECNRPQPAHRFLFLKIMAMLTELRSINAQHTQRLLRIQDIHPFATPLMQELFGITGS
T1 sequence (P19793 whole entry, chain 2 of 2): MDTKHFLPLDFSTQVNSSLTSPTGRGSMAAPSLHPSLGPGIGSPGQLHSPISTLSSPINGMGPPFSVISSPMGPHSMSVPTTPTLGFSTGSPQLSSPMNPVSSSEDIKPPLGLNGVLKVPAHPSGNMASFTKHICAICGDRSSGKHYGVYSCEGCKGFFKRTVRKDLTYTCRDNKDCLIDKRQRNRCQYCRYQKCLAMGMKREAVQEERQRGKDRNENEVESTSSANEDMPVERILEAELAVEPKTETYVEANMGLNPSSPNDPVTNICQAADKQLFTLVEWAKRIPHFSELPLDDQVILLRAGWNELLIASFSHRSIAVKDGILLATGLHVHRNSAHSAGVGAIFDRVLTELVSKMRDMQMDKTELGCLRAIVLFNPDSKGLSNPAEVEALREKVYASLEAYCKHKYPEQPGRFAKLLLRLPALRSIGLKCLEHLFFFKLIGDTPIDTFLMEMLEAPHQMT

Binder	binding result [1]	other results
Prox-ER6 (dsDNA) DNA 1: ATATGAACTCAAAGGAGGTCAGTG DNA 2: CACTGACCTCCTTTGAGTTCATAT	binds	
XREM-DR6 (dsDNA) DNA 1: AGGTGAATCACAAGCTGAACTTCT DNA 2: AGAAGTTCAGCTTGTGATTCACCT		binding result [2]: no binding
XREM-DR3-2 (dsDNA) DNA 1: ATATATTGTTATTGAACTATC DNA 2: GATAGTTCAATAACAATATAT		binding result [3]: no binding
XREM-DR3-1 (dsDNA) DNA 1: GAATGAACTTGCTGACCCTCT DNA 2: AGAGGGTCAGCAAGTTCATTC	binds	
